In US20240050597A1, “RADIOLABELLED ALPHA-V BETA-3 AND/OR ALPHA-V BETA-5 INTEGRINS ANTAGONIST FOR USE AS THERAGNOSTIC AGENT” (ADVANCED ACCELERATOR APPLICATIONS INTERNATIONAL SA, priority 2020, published 2024):

Tests used:
[1] = Preliminary tests of FF58 resistance to radiation stress; format: physicochemical
Procedure: Additional tests were performed in order to evaluate the radiolysis also in more stressful conditions such as 40° C. storage temperature and rolling, decreasing antioxidant agent (sodium ascorbate and gentisic acid) amounts. The radiochemical purity (RCP) was monitored at release time and at expiration time by Radio-RP-HPLC.

[2] = test system: WM266 melanoma tumor; set-up: species or system mice; details: mouse, in vivo
Procedure: Nude, male and female athymic mice bearing the WM266 melanoma tumor were intravenously injected with ^68Ga-Compound (˜100-150/uCi 320-480 pmol for males, ˜100-150 uCi/127-191 pmol for females, corresponding to 3.7-5.55 MBq). Animals were sacrificed in groups of four at 30 min, 1 h, 2 h and 4 h post injection. Tumor and organs of interest were collected, weighed and measured for radioactivity with a gamma-counter. The intestines and stomach were not emptied of their contents. Data were calculated as a percentage of the injected dose per gram of tissue (% ID/g).

[3] = molecular target: αvβ3 (Homo sapiens, UniProt P05106+P06756); test: Affinity for αvβ3 (preclinical data, summary statement); format: binding
[4] = molecular target: αvβ5 (Homo sapiens, UniProt P06756+P18084); test: Affinity for αvβ5 (preclinical data, summary statement); format: binding
[5] = test system: other receptors; test: Affinity for other receptors (preclinical data, summary statement); format: binding

Sequence of αvβ5 (P06756 31-889 limits assumed): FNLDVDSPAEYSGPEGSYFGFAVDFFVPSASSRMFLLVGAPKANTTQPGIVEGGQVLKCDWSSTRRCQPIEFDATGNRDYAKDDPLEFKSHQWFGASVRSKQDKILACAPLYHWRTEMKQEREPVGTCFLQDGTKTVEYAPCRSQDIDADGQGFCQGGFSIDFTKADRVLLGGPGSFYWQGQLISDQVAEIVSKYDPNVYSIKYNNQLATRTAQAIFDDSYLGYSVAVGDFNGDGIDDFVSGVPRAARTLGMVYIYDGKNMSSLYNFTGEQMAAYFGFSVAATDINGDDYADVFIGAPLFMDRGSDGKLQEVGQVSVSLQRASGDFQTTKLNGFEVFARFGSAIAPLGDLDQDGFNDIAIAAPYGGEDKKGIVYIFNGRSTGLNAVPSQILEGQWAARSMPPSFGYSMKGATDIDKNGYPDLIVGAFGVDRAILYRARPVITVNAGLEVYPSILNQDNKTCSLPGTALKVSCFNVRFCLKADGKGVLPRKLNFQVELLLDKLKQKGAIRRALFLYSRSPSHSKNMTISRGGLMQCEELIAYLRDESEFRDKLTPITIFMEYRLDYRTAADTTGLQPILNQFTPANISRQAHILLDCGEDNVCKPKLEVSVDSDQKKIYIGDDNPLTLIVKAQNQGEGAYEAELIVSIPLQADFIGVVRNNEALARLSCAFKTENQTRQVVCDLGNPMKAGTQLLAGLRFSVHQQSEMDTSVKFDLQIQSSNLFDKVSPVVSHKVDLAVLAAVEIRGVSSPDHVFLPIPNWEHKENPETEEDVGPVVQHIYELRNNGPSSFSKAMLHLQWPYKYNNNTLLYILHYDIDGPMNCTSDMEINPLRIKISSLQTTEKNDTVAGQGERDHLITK
Sequence of αvβ5 (P06756 891-1048 partner limits assumed): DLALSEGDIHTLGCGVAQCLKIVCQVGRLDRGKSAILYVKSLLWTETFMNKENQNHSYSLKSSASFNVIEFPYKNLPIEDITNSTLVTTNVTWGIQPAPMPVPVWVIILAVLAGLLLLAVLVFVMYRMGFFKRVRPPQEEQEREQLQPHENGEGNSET
Sequence of αvβ5 (P18084 24-799): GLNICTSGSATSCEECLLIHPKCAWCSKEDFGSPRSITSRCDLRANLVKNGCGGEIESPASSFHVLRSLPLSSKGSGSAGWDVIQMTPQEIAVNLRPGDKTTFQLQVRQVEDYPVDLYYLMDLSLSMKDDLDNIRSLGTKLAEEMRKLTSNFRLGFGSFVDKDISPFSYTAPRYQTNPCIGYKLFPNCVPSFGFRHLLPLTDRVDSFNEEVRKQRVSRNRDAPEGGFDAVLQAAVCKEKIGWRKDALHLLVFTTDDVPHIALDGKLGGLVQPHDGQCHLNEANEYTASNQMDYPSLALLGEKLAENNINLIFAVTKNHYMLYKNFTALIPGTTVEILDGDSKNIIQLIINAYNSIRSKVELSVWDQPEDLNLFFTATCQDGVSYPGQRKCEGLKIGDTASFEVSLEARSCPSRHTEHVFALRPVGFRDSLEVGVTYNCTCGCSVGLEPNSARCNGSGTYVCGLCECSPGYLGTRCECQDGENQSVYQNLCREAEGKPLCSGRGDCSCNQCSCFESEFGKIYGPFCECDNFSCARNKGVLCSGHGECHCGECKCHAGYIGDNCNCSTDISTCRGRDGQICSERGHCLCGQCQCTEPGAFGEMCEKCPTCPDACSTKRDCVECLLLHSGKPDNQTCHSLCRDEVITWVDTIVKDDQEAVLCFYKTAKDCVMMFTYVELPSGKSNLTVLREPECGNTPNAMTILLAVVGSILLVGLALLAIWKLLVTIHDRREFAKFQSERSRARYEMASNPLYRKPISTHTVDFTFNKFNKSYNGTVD
Sequence of αvβ3 (P06756 31-889 limits assumed): as the sequence (P06756 31-889 limits assumed) above
Sequence of αvβ3 (P06756 891-1048 partner limits assumed): as the sequence (P06756 891-1048 partner limits assumed) above
Sequence of αvβ3 (P05106 27-788): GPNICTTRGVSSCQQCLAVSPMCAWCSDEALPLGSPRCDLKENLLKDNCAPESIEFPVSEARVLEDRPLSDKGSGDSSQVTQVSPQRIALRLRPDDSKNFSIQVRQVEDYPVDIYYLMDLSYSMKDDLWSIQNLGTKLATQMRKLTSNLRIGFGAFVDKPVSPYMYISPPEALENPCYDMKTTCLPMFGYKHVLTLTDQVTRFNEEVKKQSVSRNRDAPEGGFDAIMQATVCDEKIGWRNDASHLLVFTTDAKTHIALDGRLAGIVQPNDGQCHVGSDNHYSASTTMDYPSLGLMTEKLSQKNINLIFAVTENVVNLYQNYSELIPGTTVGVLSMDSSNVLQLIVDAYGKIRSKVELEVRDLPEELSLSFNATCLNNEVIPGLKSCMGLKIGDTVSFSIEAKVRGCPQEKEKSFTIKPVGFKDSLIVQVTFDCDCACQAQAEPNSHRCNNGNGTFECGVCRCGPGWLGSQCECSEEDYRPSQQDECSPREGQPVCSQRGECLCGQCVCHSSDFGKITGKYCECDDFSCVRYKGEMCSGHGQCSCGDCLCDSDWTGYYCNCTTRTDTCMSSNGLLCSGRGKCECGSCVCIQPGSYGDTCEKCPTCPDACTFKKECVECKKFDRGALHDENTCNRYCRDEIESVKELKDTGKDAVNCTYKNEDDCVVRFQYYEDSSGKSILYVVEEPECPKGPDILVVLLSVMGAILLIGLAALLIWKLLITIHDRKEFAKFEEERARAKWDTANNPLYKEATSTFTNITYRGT

SMILES: Cc1cc(OCCCC(=O)NCCNC(=O)[C@H](CS(=O)(=O)O)NC(=O)CN2CCN(CC(=O)O)CCN(CC(=O)O)CCN(CC(=O)O)CC2)cc(C)c1S(=O)(=O)NC(CNC(=O)CCCCc1ccc2c(n1)NCCC2)C(=O)O (stereo partly drawn) [FF58]
- resistance to the radiation stress [1]: good resistance to the radiation stress

SMILES: Cc1cc(OCCCC(=O)NCCNC(=O)[C@H](CS(=O)(=O)O)NC(=O)CN2CCN(CC(=O)O)CCN(CC(=O)O)CCN(CC(=O)O)CC2)cc(C)c1S(=O)(=O)NC(CNC(=O)CCCCc1ccc2c(n1)NCCC2)C(=O)O (single isomer, unassigned) [^68Ga-Compound, metal not drawn]
- background uptake in normal organs [2]: cleared moderately by 4 h
- excretion (uptake in the kidneys and intestine) [2]: renal and partial hepatic excretion
- affinity for αvβ3 [3]: high affinity
- affinity for αvβ5 [4]: high affinity
- affinity for other receptors [5]: absence of affinity
